{
  "source": "patent US6420518",
  "note": "Positions of bridges follow the written chain, without caps; N, C: chain ends. Non-standard residues stand in square brackets, D forms with d. No end group written: not given here. 1Nal = N[C@@H](Cc1cccc2ccccc12)C(=O)O; Nle = CCCC[C@H](N)C(=O)O",
  "data": [
    {"molecular_target": "T1, IGFBP-1 (UniProt P08833 26-259)", "T1 construct": "in kinetics immobilised on a CM chip by EDC/NHS; biotinylated in the phage selection", "T1 sequence (looked up)": "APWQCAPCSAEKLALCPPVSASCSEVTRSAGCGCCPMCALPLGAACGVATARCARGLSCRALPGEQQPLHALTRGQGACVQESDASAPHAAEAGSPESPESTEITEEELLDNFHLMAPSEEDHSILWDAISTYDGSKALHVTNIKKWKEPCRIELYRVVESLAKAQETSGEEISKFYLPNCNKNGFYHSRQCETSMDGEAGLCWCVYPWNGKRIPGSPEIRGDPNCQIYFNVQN", "assay": "ELISA inhibition of IGFBP-1 binding to IGF-I", "units": {"Fold potency reduction IC50(mut)/IC50(bp1-16)": "fold"}, "values": [
      {"binder": "CRAGP[Nle]QWLCEKYF (disulfide 1-10, also called L6(Nle) variant of bp1-16)", "note": "[bp1-36]", "Fold potency reduction IC50(mut)/IC50(bp1-16)": 6.9},
      {"binder": "CRAAPLQWLCEKYF (disulfide 1-10, also called G4A variant of bp1-16)", "note": "[bp1-29]", "Fold potency reduction IC50(mut)/IC50(bp1-16)": 50},
      {"binder": "CRAGPLQHLCEKYF (disulfide 1-10, also called W8H variant of bp1-16)", "note": "[bp1-24]", "Fold potency reduction IC50(mut)/IC50(bp1-16)": 7.5},
      {"binder": "CRAGNLQWLCEKYF (disulfide 1-10, also called P5N variant of bp1-16)", "note": "[bp1-34]", "Fold potency reduction IC50(mut)/IC50(bp1-16)": 3.1},
      {"binder": "CRAGALQWLCEKYF (disulfide 1-10, also called P5A variant of bp1-16)", "note": "[bp1-30]", "Fold potency reduction IC50(mut)/IC50(bp1-16)": 1.5},
      {"binder": "CRAGRLQWLCEKYF (disulfide 1-10, also called P5R variant of bp1-16)", "note": "[bp1-31]", "Fold potency reduction IC50(mut)/IC50(bp1-16)": 2},
      {"binder": "CRAGPLQWRCEKYF (disulfide 1-10, also called L9R variant of bp1-16)", "note": "[bp1-26]", "Fold potency reduction IC50(mut)/IC50(bp1-16)": "> 570"},
      {"binder": "CRAGPRQWLCEKYF (disulfide 1-10, also called L6R variant of bp1-16)", "note": "[bp1-32]", "Fold potency reduction IC50(mut)/IC50(bp1-16)": "> 1000"},
      {"binder": "CRAGPLQW[Nle]CEKYF (disulfide 1-10, also called L9(Nle) variant of bp1-16)", "note": "[bp1-37]", "Fold potency reduction IC50(mut)/IC50(bp1-16)": 1.7}
    ]},
    {"molecular_target": "T1, IGFBP-1", "assay": "BIAcore inhibition of IGFBP-1 binding to IGF-I", "units": {"Fold potency reduction IC50(mut)/IC50(bp1-16)": "fold"}, "values": [
      {"binder": "CRAGPLQRLCEKYF (disulfide 1-10, also called W8R variant of bp1-16)", "note": "[bp1-22]", "Fold potency reduction IC50(mut)/IC50(bp1-16)": 3.3},
      {"binder": "CRAGPLQ[1Nal]LCEKYF (disulfide 1-10, also called W8(Nal(1)) variant of bp1-16)", "note": "[bp1-23]", "Fold potency reduction IC50(mut)/IC50(bp1-16)": 4.8}
    ]},
    {"molecular_target": "T1, IGFBP-1", "assay": "BIAcore inhibition assay, 9-10 nM IGFBP-1, immobilized IGF-1", "units": {"fold improved potency over bp1-01": "fold"}, "values": [
      {"binder": "GQQSCAAGPLQWLCEHYFSTYGR (disulfide 5-14, bp1-40 with R2A, K12H and an added C-terminal GlyArg)", "note": "[bp1-625]", "fold improved potency over bp1-01": "~20"}
    ]},
    {"molecular_target": "T1, IGFBP-1", "assay": "BIAcore inhibition of the interaction of IGFBP-1 with IGF-1", "experimental": "Peptides were assayed in a BIAcore1 assay as described in WO 98/45427, supra.", "units": {"Fold potency reduction vs bp1-01": "fold"}, "values": [
      {"binder": "Ac-RAGPLEWLAEKYEG (linker 6-13 via 1,5‑diaminopentane, also called locked-helix variant of bp1-01)", "note": "[(i+7)D]", "Fold potency reduction vs bp1-01": 7.7},
      {"binder": "Ac-PLEWLAEKYEG (linker 3-10 via 1,5‑diaminopentane, also called locked-helix variant of bp1-01)", "note": "[(i+7)C]", "Fold potency reduction vs bp1-01": 20},
      {"binder": "Ac-RAGPLEWLAEKYFE (linker 6-14 via 1,5‑diaminopentane, also called locked-helix variant of bp1-01)", "note": "[(i+8)C]", "Fold potency reduction vs bp1-01": 5.9},
      {"binder": "Ac-LEWLAEKYEG (linker 2-9 via 1,5‑diaminopentane, also called locked-helix variant of bp1-01)", "note": "[(i+7)B]", "Fold potency reduction vs bp1-01": "> 360"},
      {"binder": "Ac-CRAGPLQELCEKYAE (disulfide 1-10 (inferred); linker 8-15 via 1,5‑diaminopentane, W8 and G15 replaced by the cross-linking Glu residues, F14 replaced by Ala; also called locked-helix variant of bp1-01)", "note": "[(i+7)A]", "Fold potency reduction vs bp1-01": 40},
      {"binder": "Ac-RPLEWLAEKYFE (linker 4-12 via 1,5‑diaminopentane, also called locked-helix variant of bp1-01)", "note": "[(i+8)B]", "Fold potency reduction vs bp1-01": 7.7}
    ]},
    {"molecular_target": "T1, IGFBP-1", "assay": "ELISA or BIAcore inhibition of IGFBP-1 binding to IGF-I; reference peptide", "units": {"Fold potency reduction IC50(mut)/IC50(bp1-16)": "fold"}, "values": [
      {"binder": "CRAGPLQWLCEKYF (disulfide 1-10, Synthetic peptide)", "note": "[bp1-16]", "Fold potency reduction IC50(mut)/IC50(bp1-16)": 1}
    ]},
    {"molecular_target": "T1, IGFBP-1", "assay": "BIAcore inhibition of the interaction of IGFBP-1 with IGF-1; reference peptide", "units": {"Fold potency reduction IC50(bp1-01)/IC50(mut)": "fold"}, "values": [
      {"binder": "CRAGPLQWLCEKYFG (disulfide 1-10)", "note": "[bp1-01]", "Fold potency reduction IC50(bp1-01)/IC50(mut)": 1}
    ]}
  ]
}
